Laboratory results published in the supplement of paper PMC10567573.

B1: HSP90AB1 (parent)
chain: YHTSQSGDEMTSLSEYVSRMKETQ

Variants of: B1
Test: protein stability index of a GFP-peptide fusion (GPS, HEK-293T) (PSI 1-6); higher = more stable
Conditions: c terminus: a fixed tail appended
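Further: lentivirally expressed fusions sorted by FACS into six bins by GFP to DsRed ratio, PSI derived from sequencing read proportions per bin multiplied by bin number.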

In order of falling protein stability index:
1. YHTSQSGDEMTSLSEDVSRMKETQ [Y16D]  4.74
2. YHTSQSGDEDTSLSEYVSRMKETQ [M10D]  4.68
3. YHTSQSGDEMTSESEYVSRMKETQ [L13E]  4.62
4. YHTSQSGDEMTSQSEYVSRMKETQ [L13Q]  4.59
5. YHTSQSGDEETSLSEYVSRMKETQ [M10E]  4.54
6. YHTSQSGDEMTSASEYVSRMKETQ [L13A]  4.37
7. YHTSQSGDEMTSLSEEVSRMKETQ [Y16E]  4.37
8. YHTSQSGDEMTSNSEYVSRMKETQ [L13N]  4.34
9. YHTSQSGDEMTSLSENVSRMKETQ [Y16N]  4.3
10. YHTSQSGDEMTSGSEYVSRMKETQ [L13G]  4.27
11. YHTSQSGDEMTSTSEYVSRMKETQ [L13T]  4.25
12. YHTSQSGEEMTSLSEYVSRMKETQ [D8E]  4.24
13. YHTSQSGDEMTSLSESVSRMKETQ [Y16S]  4.22
14. YHTSQSGDEMTSRSEYVSRMKETQ [L13R]  4.21
15. YHTSQSGDEMTSLSEAVSRMKETQ [Y16A]  4.17
16. YHTSQSGDEMTSLSEQVSRMKETQ [Y16Q]  4.17
17. YHTSQSGDENTSLSEYVSRMKETQ [M10N]  4.17
18. YHTSQSGDEPTSLSEYVSRMKETQ [M10P]  4.17
19. YHTSQSGDEMTSLSEMVSRMKETQ [Y16M]  4.16
20. YHTSQSGDEMTSLSECVSRMKETQ [Y16C]  4.16
21. YHTSQSGDEMTSDSEYVSRMKETQ [L13D]  4.11
22. YHTSQSGDEMTSLSEHVSRMKETQ [Y16H]  4.1
23. YHTSQSGDEGTSLSEYVSRMKETQ [M10G]  4.1
24. YHTSQSGDEITSLSEYVSRMKETQ [M10I]  4.08
25. YHTSQSGDECTSLSEYVSRMKETQ [M10C]  4.05
26. YHTSQSGDEQTSLSEYVSRMKETQ [M10Q]  4.05
27. YHTSQSGDEMTSMSEYVSRMKETQ [L13M]  4.04
28. YHTSQSGDEKTSLSEYVSRMKETQ [M10K]  4.04
29. YHTSQSGDEMTSLSETVSRMKETQ [Y16T]  4.02
30. YHTSQSGDEMTSLSEPVSRMKETQ [Y16P]  4.02
31. YHTSQSGDEATSLSEYVSRMKETQ [M10A]  4.01
32. YHTSQSGDEMTSLSEGVSRMKETQ [Y16G]  4
33. YHTSQSGDEMTSLSERVSRMKETQ [Y16R]  3.98
34. YHTSQSGDERTSLSEYVSRMKETQ [M10R]  3.9
35. YHTSQSGDEMTSHSEYVSRMKETQ [L13H]  3.88
36. YHTSQSGDESTSLSEYVSRMKETQ [M10S]  3.87
37. YHTSQSGDEMTSLSEYASRMKETQ [V17A]  3.85
38. YHTSQSGDEMTSKSEYVSRMKETQ [L13K]  3.82
39. YHTSQSGDDMTSLSEYVSRMKETQ [E9D]  3.79
40. YHTSQSGDEMTSLSEVVSRMKETQ [Y16V]  3.79
41. YHTSQSGDEMTSLSNYVSRMKETQ [E15N]  3.77
42. YHTSQSGSEMTSLSEYVSRMKETQ [D8S]  3.77
43. YHTSQSGDEMTSPSEYVSRMKETQ [L13P]  3.74
44. YHTSQSGDEVTSLSEYVSRMKETQ [M10V]  3.74
45. YHTSQSGDETTSLSEYVSRMKETQ [M10T]  3.73
46. YHTSQSGQEMTSLSEYVSRMKETQ [D8Q]  3.69
47. YHTSQSGDEMTSSSEYVSRMKETQ [L13S]  3.68
48. YHTSQSGDTMTSLSEYVSRMKETQ [E9T]  3.66
49. YHTSQSGDEMTSLSEKVSRMKETQ [Y16K]  3.53
50. YHTSQSGAEMTSLSEYVSRMKETQ [D8A]  3.53
51. YHTSQSGDEMTSCSEYVSRMKETQ [L13C]  3.52
52. YHTSQSGDEMTSISEYVSRMKETQ [L13I]  3.5
53. YHTSQSGDEMTSLSEFVSRMKETQ [Y16F]  3.49
54. YHTSQSGDEMTSLSKYVSRMKETQ [E15K]  3.48
55. YHTSQSGVEMTSLSEYVSRMKETQ [D8V]  3.47
56. YHTSQSGDEHTSLSEYVSRMKETQ [M10H]  3.46
57. YHTSQSGFEMTSLSEYVSRMKETQ [D8F]  3.44
58. YHTSQSGDEMTSLSELVSRMKETQ [Y16L]  3.41
59. YHTSQSGDEMTSYSEYVSRMKETQ [L13Y]  3.38
60. YHTSQSGNEMTSLSEYVSRMKETQ [D8N]  3.33
61. YHTSQSGDEMTSVSEYVSRMKETQ [L13V]  3.32
62. YHTSQSGDELTSLSEYVSRMKETQ [M10L]  3.32
63. YHTSQSGLEMTSLSEYVSRMKETQ [D8L]  3.31
64. YHTSQSGDEMTSLSEYCSRMKETQ [V17C]  3.27
65. YHTSQSGKEMTSLSEYVSRMKETQ [D8K]  3.24
66. YHTSQSGTEMTSLSEYVSRMKETQ [D8T]  3.24
67. YHTSQSGDEYTSLSEYVSRMKETQ [M10Y]  3.2
68. YHTSQSGDEMTSLSQYVSRMKETQ [E15Q]  3.15
69. YHTSQSGDEMTSLSEIVSRMKETQ [Y16I]  3.09
70. YHTSQSGDEFTSLSEYVSRMKETQ [M10F]  3.06
71. YHTSQSGDEMTSLSDYVSRMKETQ [E15D]  3.02
72. YHTSQSGPEMTSLSEYVSRMKETQ [D8P]  3
73. YHTSQSGDEMTSLSHYVSRMKETQ [E15H]  2.96
74. YHTSQSGHEMTSLSEYVSRMKETQ [D8H]  2.92
75. YHTSQSGGEMTSLSEYVSRMKETQ [D8G]  2.89
76. YHTSQSGDEMTSLSSYVSRMKETQ [E15S]  2.87
77. YHTSQSGDEMTSLSRYVSRMKETQ [E15R]  2.85
78. YHTSQSGDEMTSLSTYVSRMKETQ [E15T]  2.79
79. YHTSQSGDEMTSLSEWVSRMKETQ [Y16W]  2.69
80. YHTSQSGDEMTSLSGYVSRMKETQ [E15G]  2.68
81. YHTSQSGDEMTSLSYYVSRMKETQ [E15Y]  2.65
82. YHTSQSGDEMTSLSAYVSRMKETQ [E15A]  2.6
83. YHTSQSGCEMTSLSEYVSRMKETQ [D8C]  2.58
84. YHTSQSGDEMTSLSIYVSRMKETQ [E15I]  2.37
85. YHTSQSGIEMTSLSEYVSRMKETQ [D8I]  2.32
86. YHTSQSGYEMTSLSEYVSRMKETQ [D8Y]  2.26
87. YHTSQSGDEMTSFSEYVSRMKETQ [L13F]  2.18
88. YHTSQSGWEMTSLSEYVSRMKETQ [D8W]  2.17
89. YHTSQSGDEWTSLSEYVSRMKETQ [M10W]  2.12
90. YHTSQSGDEMTSLSLYVSRMKETQ [E15L]  1.99
91. YHTSQSGDEMTSLSFYVSRMKETQ [E15F]  1.99
92. YHTSQSGDEMTSLSVYVSRMKETQ [E15V]  1.89
93. YHTSQSGDEMTSLSPYVSRMKETQ [E15P]  1.87
94. YHTSQSGDEMTSLSWYVSRMKETQ [E15W]  1.48
